The record followed here is patent US20200317768A1 (published 2020).

Holding throughout (assay): SPR (BIACORE); KD of SG1 / KD of variant;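 note: relative to parent M103205H795-SG1 carrying the SG1 human heavy chain constant region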
The target in assay [1] is T1, cynomolgus monkey FcγRIIIaS extracellular domain, C-terminal His-tag (cynomolgus monkey, UniProt A3RFZ7 21-206 (rhesus entry)).
T1 construct: also called cyno FcγRIIIaS; cynoFcγRIIIaS; not shown: His-tag added to C-terminus
Here is the method:
(§1) The kinetic analysis of interactions between these antibodies and FcγR was carried out using BIACORE® T200 or BIACORE® 4000 (GE Healthcare). HBS-EP+ (GE Healthcare) was used as the running buffer, and the measurement temperature was set to 25° C. A chip produced by immobilizing Protein A. Protein A/G or mouse anti-human IgG kappa light chain (BD Biosciences) onto a Series S Sensor Chip CM4 or CM5 (GE Healthcare) by the amine-coupling method was used. […] After the measurement, the antibody captured on the chip was washed off by allowing reaction with 10 mM glycine-HCl, pH1.5 and 25 mM NaOH so that the chip was regenerated and used repeatedly. The sensorgrams obtained as measurement results were analyzed by the 1:1 Langmuir binding model using the BIACORE® Evaluation Software to calculate the binding rate constant ka (L/mol/s) and dissociation rate constant kd (l/s), and the dissociation constant KD (mol/L) was calculated from these values. […] Regarding such interactions, KD values were calculated using the following 1:1 binding model described in BIACORE® T100 Software Handbook BR1006-48 Edition AE.
(§2) The behavior of interacting molecules according to the 1:1 binding model on BIACORE® can be described by Equation 1: Req=C·R max/(KD+C)+RI, wherein, Req is a plot of steady-state binding levels to analyte concentration. C is concentration, RI is bulk refractive index contribution in the sample, and Rmax is analyte binding capacity of the surface. When this equation is rearranged, KD can be expressed as Equation 2: KD=C·Rmax/(Req−RI)−C. KD can be calculated by substituting the values of Rmax, RI, and C into Equation 1 or Equation 2. From the current measurement conditions, RI=0, C=2 μmol/L can be used.

Assay [2] concerns the target T2, human FcγRIIaR extracellular domain, C-terminal His-tag (human, UniProt P12318 34-217).
T2 construct: also called human FcγRIIa (type R); FcgRIIaR; not shown: His-tag added to C-terminus
T2 chain: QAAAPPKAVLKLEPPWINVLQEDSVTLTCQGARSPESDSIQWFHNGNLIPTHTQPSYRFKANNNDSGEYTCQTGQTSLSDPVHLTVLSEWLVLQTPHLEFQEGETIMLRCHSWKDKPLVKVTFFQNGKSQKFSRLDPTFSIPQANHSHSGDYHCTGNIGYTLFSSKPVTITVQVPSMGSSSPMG
As for the experimental part:
as §1, §2

The target of assay [3] is T3, human FcγRIIb extracellular domain, C-terminal His-tag (human, UniProt P31994 43-217).
T3 construct: also called humanFcgRIIb; not shown: His-tag added to C-terminus
T3 sequence: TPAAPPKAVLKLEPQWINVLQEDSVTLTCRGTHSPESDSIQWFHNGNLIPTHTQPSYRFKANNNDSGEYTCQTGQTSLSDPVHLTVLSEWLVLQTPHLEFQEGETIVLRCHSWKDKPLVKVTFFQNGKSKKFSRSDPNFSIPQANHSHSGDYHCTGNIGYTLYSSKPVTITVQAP
As for the experimental part: as §1, §2

The target in assay [4] is T4, cynomolgus monkey FcγRIIa2 extracellular domain, C-terminal His-tag (cynomolgus monkey).
T4 construct: also called cyno FcγRIIa2; cynoFcgRIIa2; not shown: His-tag added to C-terminus
T4 chain: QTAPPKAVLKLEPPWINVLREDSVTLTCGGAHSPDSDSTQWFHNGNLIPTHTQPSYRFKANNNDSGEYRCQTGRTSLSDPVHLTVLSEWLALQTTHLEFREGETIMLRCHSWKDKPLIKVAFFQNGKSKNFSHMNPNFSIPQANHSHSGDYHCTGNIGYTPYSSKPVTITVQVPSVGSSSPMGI
As for the experimental part: as §1, §2

The target in assay [5] is T5, cynomolgus monkey FcγRIIb extracellular domain, C-terminal His-tag (cynomolgus monkey).
T5 construct: also called cyno FcγRIIb; cynoFcγRIIb; not shown: His-tag added to C-terminus
T5 chain: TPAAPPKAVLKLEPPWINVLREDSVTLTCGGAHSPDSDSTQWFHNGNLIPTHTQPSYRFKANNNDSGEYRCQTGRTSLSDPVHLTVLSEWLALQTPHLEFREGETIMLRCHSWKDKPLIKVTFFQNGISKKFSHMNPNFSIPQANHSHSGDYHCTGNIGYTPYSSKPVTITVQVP
As for the experimental part: as §1, §2

Assay [6] concerns the target T6, human FcγRIIIaV extracellular domain, C-terminal His-tag (human, UniProt P08637 17-208).
T6 construct: also called FcgRIIIaV; not shown: His-tag added to C-terminus
As for the experimental part: as §1, §2

Assay [7] deals with T7, cynomolgus monkey FcγRIIa1 extracellular domain, C-terminal His-tag (cynomolgus monkey).
T7 construct: also called cyno FcγRIIa1; cynoFcgRIIa1; not shown: His-tag added to C-terminus
T7 chain: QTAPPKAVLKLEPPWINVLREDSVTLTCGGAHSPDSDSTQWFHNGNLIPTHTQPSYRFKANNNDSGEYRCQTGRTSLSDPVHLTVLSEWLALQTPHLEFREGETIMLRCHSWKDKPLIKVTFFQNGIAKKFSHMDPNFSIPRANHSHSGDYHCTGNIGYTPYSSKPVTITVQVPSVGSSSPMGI
As for the experimental part: as §1, §2

Assay [8] has as its target T8, human FcγRIIaH extracellular domain, C-terminal His-tag (human, UniProt P12318 34-217).
T8 construct: also called human FcγRIIa (type H); FcgRIIaH; not shown: His-tag added to C-terminus
T8 sequence: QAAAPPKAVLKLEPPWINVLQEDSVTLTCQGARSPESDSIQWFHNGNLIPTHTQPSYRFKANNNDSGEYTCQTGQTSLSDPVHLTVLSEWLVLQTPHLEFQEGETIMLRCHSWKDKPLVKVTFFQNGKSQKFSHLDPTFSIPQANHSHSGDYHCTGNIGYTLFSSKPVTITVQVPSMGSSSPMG
As for the experimental part: as §1, §2

Assay [9] addresses T9, cynomolgus monkey FcγRIIa3 extracellular domain, C-terminal His-tag (cynomolgus monkey).
T9 construct: also called cyno FcγRIIa3; cynoFcgRIIa3; not shown: His-tag added to C-terminus
T9 chain: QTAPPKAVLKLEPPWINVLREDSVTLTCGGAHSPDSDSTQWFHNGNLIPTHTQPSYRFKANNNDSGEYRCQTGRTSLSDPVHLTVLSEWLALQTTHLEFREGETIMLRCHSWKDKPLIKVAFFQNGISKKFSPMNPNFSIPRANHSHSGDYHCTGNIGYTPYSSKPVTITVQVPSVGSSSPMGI
As for the experimental part:
as §1, §2

T1 sequence (A3RFZ7 21-206): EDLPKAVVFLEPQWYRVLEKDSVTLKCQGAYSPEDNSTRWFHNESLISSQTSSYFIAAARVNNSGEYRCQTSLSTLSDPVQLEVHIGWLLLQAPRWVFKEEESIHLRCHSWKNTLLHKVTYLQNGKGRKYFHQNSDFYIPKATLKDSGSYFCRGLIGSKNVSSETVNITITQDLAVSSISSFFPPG
T6 sequence (P08637 17-208 F176V): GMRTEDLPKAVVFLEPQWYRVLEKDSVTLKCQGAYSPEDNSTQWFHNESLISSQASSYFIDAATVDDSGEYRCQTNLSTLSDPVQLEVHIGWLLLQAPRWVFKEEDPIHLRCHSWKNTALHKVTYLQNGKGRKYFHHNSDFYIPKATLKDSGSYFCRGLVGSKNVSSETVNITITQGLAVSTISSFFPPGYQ

B1: M103205H795-MY537 / M103202L889-SK1 (antibody, human IgG1, kappa)
heavy: QVTLKESGPVLVKPTETLTLTCTVSGIDLSHDDISWVRQAPGKGLEWVGIISYAGSTYYASWAKGRLTISKDTSKNQVVLTMTNMDPVDTATYYCARGVPAYSHGGDLWGQGTLVTVSSASTKGPSVFPLAPSSKSTSGGTAALGCLVKDYFPEPVTVSWNSGALTSGVHTFPAVLQSSGLYSLSSVVTVPSSSLGTQTYICNVNHKPSNTKVDKKVEPKSCDKTHTCPPCPGPEWLTGPVVFLFPPKPKDTLMISRTPEVTCVVVDVSDEDPEVKFNWYVDGVEVHNAKTKPREELYNSTYRVVSVLTVLHQDWLNGKEYKCKVSNKALPKPIEKTISKAKGQPREPQVYTLPPSREEMTKNQVSLTCLVKGFYPSDIAVEWESNGQPENNYKTTPPVLDSDGSFFLYSKLTVDKSRWQQGNVFSCSVMHEALHNHYTQKSLSLSP
light: DIVMTQSPATLSLSPGERATLSCTSSQSVYHANWLSWFQQKPGQPPKLLIYWASTLAYGVPSRFSGSGSGTDFTLTISSLQPEDAATYYCAGGYGGGRYAFGQGTKVEIKRTVAAPSVFIFPPSDEQLKSGTASVVCLLNNFYPREAKVQWKVDNALQSGNSQESVTEQDSKDSTYSLSSTLTLSKADYEKHKVYACEVTHQGLSSPVTKSFNRGEC
Regarding B1, the “KD fold (SG1 = 1)” value was 0.24 fold in [1]; 3 fold in assay [2]; 4.6 fold in [3]; 4.6 fold in [4]; 3.6 fold in assay [5]; 0.25 fold in [6]. The “KD fold (SG1 = 1)” value was found to be 2.7 fold in assay [7], 2.5 fold in assay [8] and 12.1 fold in assay [9].

B2: M103205H795-MY538 / M103202L889-SK1 (A231G/L234W/G236T/H268D/Q295L/A330K, as in Table 23B) (antibody, human IgG1, kappa)
heavy: QVTLKESGPVLVKPTETLTLTCTVSGIDLSHDDISWVRQAPGKGLEWVGIISYAGSTYYASWAKGRLTISKDTSKNQVVLTMTNMDPVDTATYYCARGVPAYSHGGDLWGQGTLVTVSSASTKGPSVFPLAPSSKSTSGGTAALGCLVKDYFPEPVTVSWNSGALTSGVHTFPAVLQSSGLYSLSSVVTVPSSSLGTQTYICNVNHKPSNTKVDKKVEPKSCDKTHTCPPCPGPEWLTGPSVFLFPPKPKDTLMISRTPEVTCVVVDVSDEDPEVKFNWYVDGVEVHNAKTKPREELYNSTYRVVSVLTVLHQDWLNGKEYKCKVSNKALPKPIEKTISKAKGQPREPQVYTLPPSREEMTKNQVSLTCLVKGFYPSDIAVEWESNGQPENNYKTTPPVLDSDGSFFLYSKLTVDKSRWQQGNVFSCSVMHEALHNHYTQKSLSLSP
light: DIVMTQSPATLSLSPGERATLSCTSSQSVYHANWLSWFQQKPGQPPKLLIYWASTLAYGVPSRFSGSGSGTDFTLTISSLQPEDAATYYCAGGYGGGRYAFGQGTKVEIKRTVAAPSVFIFPPSDEQLKSGTASVVCLLNNFYPREAKVQWKVDNALQSGNSQESVTEQDSKDSTYSLSSTLTLSKADYEKHKVYACEVTHQGLSSPVTKSFNRGEC
In the case of B2, the “KD fold (SG1 = 1)” value in assay [1] was 0.15 fold; in [2], 1.8 fold; in [3] it was 3.5 fold; in [4], 4.6 fold; in [5] it was 6.4 fold; in assay [6] it was 0.14 fold. For the same molecule, the “KD fold (SG1 = 1)” value in assay [7] was 3.3 fold; in assay [8], 2.8 fold; in [9], 5.7 fold.
